Source: patent publication US20250215412A1 (NOVOZYMES A S, published 2025)
Substitutions are numbered along the chain they refer to. In names and notes the source's numbering stands. Where two headings read alike, the source gives them in different places. One block for each molecule: values may come before it.

Key:
Assay in all cases: cell-based or functional assay
[1] = molecular target: Chryseobacterium culicis deamidase polypeptide, wildtype, with His-tag (Chryseobacterium culicis)
[2] = molecular target: T1, Chryseobacterium culicis deamidase polypeptide, wildtype, with His-tag (Chryseobacterium culicis)
T1 chain: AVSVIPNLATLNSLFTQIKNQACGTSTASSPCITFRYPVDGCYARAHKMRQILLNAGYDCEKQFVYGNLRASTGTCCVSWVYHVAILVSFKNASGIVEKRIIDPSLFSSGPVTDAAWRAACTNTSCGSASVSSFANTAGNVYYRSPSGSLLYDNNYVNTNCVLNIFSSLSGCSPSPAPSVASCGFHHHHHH

[3] = molecular target: T2, Chryseobacterium proteolyticum deamidase polypeptide, wildtype, with His-tag (Chryseobacterium proteolyticum) (UniProt Q9AQQ8)
T2 sequence: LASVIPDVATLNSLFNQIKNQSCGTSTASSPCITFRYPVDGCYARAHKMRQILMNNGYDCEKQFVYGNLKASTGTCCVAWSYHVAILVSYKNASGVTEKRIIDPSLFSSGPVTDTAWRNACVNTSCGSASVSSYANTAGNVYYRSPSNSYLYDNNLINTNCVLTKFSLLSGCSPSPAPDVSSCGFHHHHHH

[4] = molecular target: T3, Chryseobacterium proteolyticum deamidase polypeptide, wildtype, with His-tag (Chryseobacterium proteolyticum, UniProt Q9AQQ8 136-320)
T3 sequence: T2 sequence

[5] = molecular target: T4, Chryseobacterium sp-62563 deamidase C230H (Chryseobacterium sp-62563)
T4 sequence: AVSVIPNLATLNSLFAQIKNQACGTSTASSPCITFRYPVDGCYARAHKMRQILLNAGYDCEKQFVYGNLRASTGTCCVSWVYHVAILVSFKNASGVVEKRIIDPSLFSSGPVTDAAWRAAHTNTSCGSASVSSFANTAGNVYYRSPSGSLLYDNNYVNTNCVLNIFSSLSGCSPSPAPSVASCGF

[6] = molecular target: T5, Chryseobacterium sp-62563 deamidase C169S (Chryseobacterium sp-62563)
T5 sequence: T4 sequence with C60S, H121C

[7] = molecular target: T6, Chryseobacterium sp-62563 deamidase polypeptide (second polypeptide, deamidase domain), wildtype (Chryseobacterium sp-62563)
T6 sequence: T4 sequence with H121C

[8] = molecular target: T7, Chryseobacterium gambrini deamidase polypeptide, wildtype, with His-tag (Chryseobacterium gambrini)
T7 sequence: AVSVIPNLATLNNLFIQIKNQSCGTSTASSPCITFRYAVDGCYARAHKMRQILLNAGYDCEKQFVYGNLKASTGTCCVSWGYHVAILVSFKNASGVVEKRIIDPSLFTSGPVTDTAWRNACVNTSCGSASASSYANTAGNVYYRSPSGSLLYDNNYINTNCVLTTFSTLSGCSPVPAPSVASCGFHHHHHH

[9] = molecular target: T8, Chryseobacterium gambrini deamidase polypeptide, wildtype, with His-tag (Chryseobacterium gambrini)
T8 chain: T7 sequence

[10] = molecular target: T9, Chryseobacterium defluvii deamidase polypeptide, wildtype, with His-tag (Chryseobacterium defluvii)
T9 sequence: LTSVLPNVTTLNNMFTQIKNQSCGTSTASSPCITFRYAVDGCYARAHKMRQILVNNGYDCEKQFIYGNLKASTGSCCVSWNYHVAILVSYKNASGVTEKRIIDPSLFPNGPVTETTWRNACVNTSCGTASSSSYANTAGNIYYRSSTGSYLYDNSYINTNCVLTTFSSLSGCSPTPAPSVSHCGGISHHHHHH

[11] = molecular target: T10, Chryseobacterium defluvii deamidase polypeptide, wildtype, with His-tag (Chryseobacterium defluvii)
T10 chain: T9 sequence

Molecule: Chryseobacterium culicis propeptide F99K + N100T + E103V + R104K + G105E + D106E + S107N + K108R
Leakage activity [1]: 3%

Molecule: Chryseobacterium culicis propeptide Y94P
NanoDSF thermal unfolding temperature [1]: 82.3 ° C.

Molecule: Chryseobacterium culicis propeptide F38C
NanoDSF thermal unfolding temperature [1]: 79.5 ° C.

B1: Chryseobacterium culicis propeptide, wildtype (other)
chain: NQDPNLVAKESNEIAMKDFGKTVPVGIEKEEGKFKVSFMVSAQPYHIKDSKENAGYISMIRQAVENETPVHIFLKTNTNEIAKVDKPTDDDIRYFKSVFTKEVKEENRK
NanoDSF thermal unfolding temperature [2]: 85.2 ° C.

B8: Chryseobacterium gambrini propeptide F99G (protein)
chain: NQDPNLVVKENNENAMRDFGSTIPVGIQKEGNVLKVSFIISAQFYEIKDSKENEAFISMIKSAIENETPVHVFLKKNSNEIAKVEKATDEDVTYFKSIGTKEVKEENRK
NanoDSF thermal unfolding temperature [8]: 69.3 ° C.

B9: Chryseobacterium gambrini propeptide F99A (protein)
chain: B8 chain with G99A
NanoDSF thermal unfolding temperature [8]: 70.4 ° C.

B12: Chryseobacterium gambrini propeptide F38C (protein)
chain: B8 chain with F38C, G99F
NanoDSF thermal unfolding temperature [8]: 82.3 ° C.

B14: Chryseobacterium defluvii propeptide Y47T (protein)
chain: ATNQDVVGKENTSNHVAARDFGKTVPVGINEENGTLKVSFILSAQFTEIKPSKENEEYISLIRQAIQNESPIHVFMKLNSNEIVKVEKGTEEDVKYFRSILTKEVKEENRK
NanoDSF thermal unfolding temperature [10]: 80.4 ° C.

B15: Chryseobacterium defluvii propeptide L101A (protein)
chain: B14 chain with T47Y, L101A
NanoDSF thermal unfolding temperature [10]: 82 ° C.

B16: Chryseobacterium defluvii propeptide L101G (protein)
chain: B14 chain with T47Y, L101G
NanoDSF thermal unfolding temperature [10]: 79.8 ° C.

B17: Chryseobacterium defluvii propeptide L101K (protein)
chain: B14 chain with T47Y, L101K
NanoDSF thermal unfolding temperature [10]: 80.5 ° C.

B18: Chryseobacterium defluvii propeptide, wildtype (other)
chain: B14 chain with T47Y
NanoDSF thermal unfolding temperature [11]: 89 ° C.

Second part, the molecule after the results:

NanoDSF thermal unfolding temperature [3]: 80 ° C.
B2: Chryseobacterium proteolyticum propeptide L100A (protein)
chain: NQEINGKEKLSVNDSKLKDFGKTVPVGIDEENGMIKVSFMLTAQFYEIKPTKENEQYIGMLRQAVKNESPVHIFLKPNSNEIGKVESASPEDVRYFKTIATKEVKEENRK

NanoDSF thermal unfolding temperature [3]: 77.3 ° C.
B3: Chryseobacterium proteolyticum propeptide L100G (protein)
chain: B2 chain with A100G

NanoDSF thermal unfolding temperature [4]: 87.3 ° C.
B4: Chryseobacterium proteolyticum propeptide, wildtype (other)
chain: B2 chain with A100L

Leakage activity [5]: 0% | Leakage activity [6]: 3% | Relative activity of maturated deamidase (% initial rate) [6]: > 100 | Leakage activity [7]: 9% | NanoDSF thermal unfolding temperature [7]: 74.1 ° C. | Relative activity of maturated deamidase (% initial rate) [7]: > 100
B5: Chryseobacterium sp-62563 propeptide F99G (protein)
chain: NQDPNLVAKESNETAMKDFGKTVPVGIEKEDGKFKISFMVTAQPYEIKDSKENAAYISMIKTAVENETPIHVFLKANTNEIAKVDKATDDDIRYFKSVGTKEVKEENRK

NanoDSF thermal unfolding temperature [8]: 77.2 ° C.
B6: Chryseobacterium gambrini propeptide I23S (protein)
chain: B8 chain with I23S, G99F

NanoDSF thermal unfolding temperature [9]: 89.3 ° C.
B7: Chryseobacterium gambrini propeptide, wildtype (other)
chain: B8 chain with G99F

NanoDSF thermal unfolding temperature [8]: 79.3 ° C.
B10: Chryseobacterium gambrini propeptide Y45T (protein)
chain: B8 chain with Y45T, G99F

NanoDSF thermal unfolding temperature [8]: 81.1 ° C.
B11: Chryseobacterium gambrini propeptide Y94P (protein)
chain: B8 chain with Y94P, G99F

NanoDSF thermal unfolding temperature [8]: 78.4 ° C.
B13: Chryseobacterium gambrini propeptide F99K (protein)
chain: B8 chain with G99K
